According to patent US20200289416:

Target: T1, MMP-Ac2-26 PA (C16V2A2E2-GGGPQGIWGQGK-AMVSEFLKQAWFIENEEQEYVQTVK-NH2)
T1 chain: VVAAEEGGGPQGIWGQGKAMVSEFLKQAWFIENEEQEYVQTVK

B1: human recombinant MMP2 (protein)
chain: YNFFPRKPKWDKNQITYRIIGYTPDLDPETVDDAFARAFQVWSDVTPLRFSRIHDGEADIMINFGRWEHGDGYPFDGKDGLLAHAFAPGTGVGGDSHFDDDELWTLGEGQVVRVKYGNADGEYCKFPFLFNGKEYNSCTDTGRSDGFLWCSTTYNFEKDGKYGFCPHEALFTMGGNAEGQPCKFPFRFQGTSYDSCTTEGRTDGYRWCGTTEDYDRDKKYGFCPETAMSTVGGNSEGAPCVFPFTFLGNKYESCTSAGRSDGKMWCATTANYDDDRKWGFCPDQGYSLFLVAAHEFGHAMGLEHSQDPGALMAPIYTYTKNFRLSQDDIKGIQELYGASPDIDLGTGPTPTLGPVTPEICKQDIVFDGIAQIRGEIFFFKDRFIWRTVTPRDKPMGPLLVATFWPELPEKIDAVYEAPQEEKAVFFAGNEYWIYSASTLERGYPKPLTSLGLPPDVQRVDAAFNWSKNKKTYIFAGDKFWRYNEVKKKMDPGFPKLIADAWNAIPDNLDAVVDLQGGGHSYFFKGAYYLKLENQSLKSVKFGSIKSDWLGC
  Ac2-26 release from PA nanofibers (cleavage assay, LC-MS): The MMP-Ac2-26 PA nanofibers released Ac2-26 after 24 hours of treatment with 40 nM MMP2
